Source: patent US20130216545A1, “Early Diagnosis and Novel Treatment of Cancer” (priority 2012, published 2013)

Tests used:
[1] = test system: rabbits; test: Enzyme ImmunoAssay titers of polyclonal antibodies raised in rabbits to a Megi peptide; assay type: in vivo, rabbit; details: for 50% titer: test bleed 31 days after day 0 and day 21 boosts, KLH-conjugated peptide, unconjugated screening antigen
Experimental: Data sets were taken from the bleed after the day 0 and day 21 boosts. The animals were injected with a peptide of SEQ ID NO: 4 and were conjugated to keyhole limpet hemocyanin (KLH). The screening antigen is not conjugated to KLH so that the response solely to the peptide and not to KLH can be identified. The 50% titer is a dilution value where the signal is half-way between the peak and the baseline, so the higher the dilution value (titer), the greater the response to the antigen. The positive control is an internal control that was generated from ovalbumin antibodies in rabbit. At a dilution of 1:759,000, the absorbance fell within a range of 0.45 to 0.9. In the case of the response to SEQ ID NO: 4, there was a high response. The data shown in FIG. 9 from the prebleed sample obtained on Dec. 8, 2010 was <100 (negative) for both rabbits, CD 153 and CD 154.

[2] = molecular target: T1, Megi (Homo sapiens, UniProt O43909); test: Cy3 immunofluorescent staining of Megi in human pancreatic adenocarcinoma cells; assay type: cell-based; details: 167 nM Reg peptide added to human pancreatic adenocarcinoma cells; FIG. 6b vs 6a
T1 construct: Megi protein is expressed in human pancreatic cancer cells; endogenous in cells
T1 sequence (O43909 1-919): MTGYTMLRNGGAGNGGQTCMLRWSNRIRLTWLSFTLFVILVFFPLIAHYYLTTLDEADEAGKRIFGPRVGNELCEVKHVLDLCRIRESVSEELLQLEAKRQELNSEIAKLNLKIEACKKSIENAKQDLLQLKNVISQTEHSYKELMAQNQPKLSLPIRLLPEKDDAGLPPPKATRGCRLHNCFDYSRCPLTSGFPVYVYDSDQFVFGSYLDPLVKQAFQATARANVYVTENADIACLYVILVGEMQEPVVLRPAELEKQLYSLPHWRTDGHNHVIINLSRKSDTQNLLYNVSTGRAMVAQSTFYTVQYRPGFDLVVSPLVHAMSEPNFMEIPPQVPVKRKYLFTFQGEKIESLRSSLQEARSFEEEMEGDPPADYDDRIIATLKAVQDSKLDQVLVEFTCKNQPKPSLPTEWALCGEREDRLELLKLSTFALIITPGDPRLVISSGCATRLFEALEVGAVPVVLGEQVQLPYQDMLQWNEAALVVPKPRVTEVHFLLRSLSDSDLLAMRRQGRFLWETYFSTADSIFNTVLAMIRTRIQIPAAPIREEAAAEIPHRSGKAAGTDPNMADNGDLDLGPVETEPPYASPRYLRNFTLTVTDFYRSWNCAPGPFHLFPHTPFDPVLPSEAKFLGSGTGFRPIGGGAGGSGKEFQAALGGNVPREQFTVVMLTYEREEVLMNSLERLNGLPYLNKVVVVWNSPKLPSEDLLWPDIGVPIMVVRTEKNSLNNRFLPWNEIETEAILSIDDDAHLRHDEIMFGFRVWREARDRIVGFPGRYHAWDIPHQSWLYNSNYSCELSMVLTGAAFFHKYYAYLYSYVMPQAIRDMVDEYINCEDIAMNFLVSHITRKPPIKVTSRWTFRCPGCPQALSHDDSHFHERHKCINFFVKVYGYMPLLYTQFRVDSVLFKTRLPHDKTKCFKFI
Experimental: To determine the presence of Megi via immunofluorescence, a continuous tumor-cell line from a human carcinoma of the exocrine pancreas were cultured in Dulbecco's Modified Eagle Medium containing 4.5 g/L glucose, 1:5 g/L sodium bicarbonate, 4 mM L-glutamine, and 10% fetal bovine serum. Cells were seeded at 50% confluence in standard growth medium. Twenty-four hours after seeding, cells were differentiated in serum free medium. Cells were mounted on cover slips and fixed in 4% paraformaldehyde and permeabilized with 0:2% Triton X-100. After being washed and blocked, cells were incubated with rabbit polyclonal anti-Megi antibody and a CY3-conjugated goat-anti-rabbit labeled fluorescent antibody. Antibodies were used at a 1:200 dilution. Coverslips were mounted and staining was analyzed on a Zeiss Axiovert 220M microscope powered by Axiovision 4.0 software with Z-stack acquisition, 3D-deconvolution, and 4D rendering modules.
Utilizing Cy3 immunofluorescent staining of Megi in human pancreatic adenocarcinoma cells in standard medium, there is immunofluorescent staining of Megi (FIG. 6a), which is well-defined at the cell borders indicating surface expression of Megi on the plasma membrane with visibly undetectable levels of Megi in the nucleus. […]

[3] = molecular target: T1, Megi; test: Western blot analysis of Megi in cytosolic and nuclear fractions of adenocarcinoma cells; assay type: cell-based; details: Reg peptide 167 nM; 30 minutes; vs cells not treated with Reg peptide; FIG. 7g vs 7e
Experimental: The Western blot analysis of cytosolic and nuclear fractions isolated at the indicated time points with Reg peptide accelerating time of Megi translocation from the cell surface membrane to nucleus. Adenocarcinoma cells were seeded in T75 flasks in Dulbecco's Modified Eagle media containing 10% fetal bovine serum. The cells were incubated at […], 5% CO2 for 24 hours and then treated with Reg peptide at the final concentration of 167 nM. This treatment was performed once a day for four days. On the fifth day the cells were broken to obtain the cell lysates. In these cell extracts the total protein levels were determined, and 50 micrograms of total protein, were used to perform the western blot analysis. The samples containing 50 micrograms of proteins were diluted in loading buffer and loaded into each well of the gel. For gels run under reducing conditions, buffer also contained 5% of the reducing agent beta-mercaptoethanol
Analyses were performed from cytoplasmic extracts were obtained in 10 mM HEPES (pH 8.0), 1 mM EDTA, 1.5 mM MgCl2, 10 mM KCl, 0.5 mM DTT, 200 mM sucrose and 0.5% Nonidet P-40. Nuclear extracts were obtained in 20 mM HEPES (pH 7.9), 0.75 mM MgCl2, 210 mM NaCl, 50 mM KCl, 1 mM EDTA, 10% glycerol, and 0.5 mM of dithiothreitol. […] Secondary signals were developed with chemiluminescence substrate and analyzed by autoradiography.

[4] = molecular target: T1, Megi; test: Immunofluorescent nuclear analyses of Megi translocation (Cy3 with DAPI overlay); assay type: cell-based; details: cells grown in serum-free medium with 150 μM Reg peptide; FIG. 8c, 8f
Text: Immunofluorescent analyses of Megi are shown in the upper panels (FIG. 8a, FIG. 8b and FIG. 8c) indicated by the Cy3 immunofluorescent staining of Megi. […] The arrows in FIG. 8a and FIG. 8d delineate the cell borders, whereas the nuclei are shown in light grey contrast in FIG. 8d.
The middle images (FIG. 8b and FIG. 8e) are cells grown in SFM. Megi is localized in the cytoplasm, as indicated by cytoplasmic Cy3 staining. The arrows in FIG. 8b and FIG. 8e show the lack of staining in the position of the nuclei. […] In the lower image (FIG. 80, there is an overlap of Megi-Cy3 staining and nuclear DAPI staining that corroborates that there is nuclear localization of Megi indicated by the arrows in FIG. 8f. In the lower image (FIG. 8f) of cells grown in SFM and Reg peptide, the arrows indicate the position of the nuclei, which now stains for Megi. Scale bar=20 μm in all images.
Immunofluorescent analyses are shown in the upper, panels (FIG. 8a, FIG. 8b and FIG. 8c) indicated by the Cy3 immunofluorescent staining of Megi. […]

[5] = test system: Megi receptor; details: rat hippocampus; effect abolished by downregulating Megi by shRNA; cited from earlier work

**Q.** With “SEQ ID NO: 4: 20 amino acid Megi peptide (amino acids 17-36) used as immunogen to raise polyclonal antibodies in rabbits (CKKSIENAKQDLLQLKNVIS)” as the molecule, how does the 50% titer ([1]; rabbit CD 153) read?
**A.** The 50% titer was 36,000.

**Q.** And the 50% titer ([1]; rabbit CD 154)?
**A.** The 50% titer was 125,000.

**Q.** What about the “response to the antigen” value ([1]; rabbits immunised with KLH-conjugated peptide) of the same molecule?
**A.** The value was “high response”.

**Q.** For “Reg peptide: common Reg peptide sequence (SEQ ID NO: 10) selected from Reg1α, Reg1β, Reg3α and RegIV, synthesized by Bachem (IGLHDPTQGTEPNG)”, which “cellular staining of Megi” value [2] is on record?
**A.** Its value is “greater expression of Megi inside of the cell”.

**Q.** What about the “nuclear levels of Megi (Megi nuclear translocation)” value [3] of the same molecule?
**A.** The value was “higher nuclear levels of Megi”.

**Q.** What about the “subcellular localization of Megi” value [4] of the same molecule?
**A.** Its value is “translocation of Megi into the nucleus”.

B1: recombinant Reg1α: recombinant regenerating islet-derived 1 alpha protein used by Van Ba on rat hippocampus (protein)
chain: QEAQTELPQARISCPEGTNAYRSYCYYFNEDRETWVDADLYCQNMNSGNLVSVLTQAEGAFVASLIKESGTDDFNVWIGLHDPKKNRRWHWSSGSLVSYKSWGIGAPSSVNPGYCVSLTSSTGFQKWKDVPCEDKFSFVCKFKN
**Q.** With B1 as the molecule, how does the neurite outgrowth [5] read?
**A.** Its neurite outgrowth is “increased neurite outgrowth”.
